The values that follow come from PMC11209935 (Cell, 2023).

The assay addresses RPA1 (subunit of recombinant RPA and Alt-RPA) (human, UniProt P27694 1-616). Kind of assay: mass photometry.

Chain of RPA1 (subunit of recombinant RPA and Alt-RPA) (P27694 whole entry): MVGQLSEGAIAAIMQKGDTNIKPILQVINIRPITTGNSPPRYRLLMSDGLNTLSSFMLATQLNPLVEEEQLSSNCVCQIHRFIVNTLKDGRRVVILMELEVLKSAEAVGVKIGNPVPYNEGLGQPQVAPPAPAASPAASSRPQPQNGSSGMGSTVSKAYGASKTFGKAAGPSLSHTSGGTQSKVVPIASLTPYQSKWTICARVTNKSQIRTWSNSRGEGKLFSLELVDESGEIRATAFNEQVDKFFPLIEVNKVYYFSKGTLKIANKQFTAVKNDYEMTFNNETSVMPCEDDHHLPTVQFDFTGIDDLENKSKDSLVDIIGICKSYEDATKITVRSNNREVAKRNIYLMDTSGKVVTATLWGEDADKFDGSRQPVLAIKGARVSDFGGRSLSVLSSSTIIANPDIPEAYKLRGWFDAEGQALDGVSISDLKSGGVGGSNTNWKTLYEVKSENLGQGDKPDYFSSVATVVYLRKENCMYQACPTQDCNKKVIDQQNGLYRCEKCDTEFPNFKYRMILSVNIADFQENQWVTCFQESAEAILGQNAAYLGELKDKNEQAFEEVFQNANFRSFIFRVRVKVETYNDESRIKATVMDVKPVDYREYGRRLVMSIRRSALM

B1: RPA4 (subunit of recombinant Alt-RPA) (natural protein, human, UniProt Q13156 1-261, looked up)
chain: MSKSGFGSYGSISAADGASGGSDQLCERDATPAIKTQRPKVRIQDVVPCNVNQLLSSTVFDPVFKVRGIIVSQVSIVGVIRGAEKASNHICYKIDDMTAKPIEARQWFGREKVKQVTPLSVGVYVKVFGILKCPTGTKSLEVLKIHVLEDMNEFTVHILETVNAHMMLDKARRDTTVESVPVSPSEVNDAGDNDESHRNFIQDEVLRLIHECPHQEGKSIHELRAQLCDLSVKAIKEAIDYLTVEGHIYPTVDREHFKSAD
For B1, the binding result was “binds”.
